Values joined by “and” are separate entries in the source; they are usually repeats but may differ in a detail not shown here. Equal entries are not always repeated.
Experiments:
[1] = target: VEGF (autocrine, of U937 acute myeloid leukemia cells) (UniProt P15692-4 27-191, limits assumed); assay: cell-based or functional assay
[2] = target: T1, Recombinant Human VEGF165 (R&D Systems, 293-VE-010/CF) (human, UniProt P15692 27-191); assay: SPR (Biacore X100), rhVEGF165 amine-coupled to CM5 chip, design as analyte, multi-cycle kinetics, 1:1 binding assumed
T1 construct: mature; Amine-coupled to a CM5 chip for SPR, and added to the medium in the HUVEC survival assay; also called rhVEGF
T1 sequence (P15692 other isoform, or with tags, fused parts or gaps): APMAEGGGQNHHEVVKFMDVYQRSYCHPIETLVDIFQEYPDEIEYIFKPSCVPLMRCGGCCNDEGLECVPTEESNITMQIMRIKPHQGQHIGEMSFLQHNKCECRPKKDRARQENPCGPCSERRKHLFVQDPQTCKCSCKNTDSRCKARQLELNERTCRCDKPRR

Sequence of VEGF (autocrine, of U937 acute myeloid leukemia cells) (P15692 other isoform, or with tags, fused parts or gaps limits assumed): as the sequence (P15692 other isoform, or with tags, fused parts or gaps) above

Binder | IC50, proliferation of U937 cells [1] | Kd [2] [nM]
Sima3.2 (designed binder, not shown: N-terminal poly-histidine tag and thrombin cleavage site from pET28a(+)) STNISPKQGLDKAKYFSGKWYLTHVLIKDPKIVSQFCASFTPRESDGTVKIAVYLYLAIKKTSDYAIGEGKLESSGLQYTATSKVVDKKKAVLKELDERHSYTVTVLEADDSSALTHITVREGSKDYGDYYLVLTHQKDAEPSAKVKSAVTQAGLQLSQFVGTKDLGCQYDDQFTSL | 3.6 µg/ml and 180 nM | 14
Sam0.7 (designed binder, Designed on the ketosteroid isomerase scaffold (PDB 1OH0); Made in E. coli; The monomeric gel filtration fraction was used; not shown: N-terminal poly-histidine tag and thrombin cleavage site from pET28a(+)) LPTAEEVQKLMARYIELMDVGDIEAIVQMYADDATVEAPFGAPPIHGRERIAYFYRRMLGGGIARATLTGPVRASHNGTGAMPFRVEYVFNGQPFAMDVRVEMRFDEHGRIQTMQAYWDWVNLSVREP | 8 µg/ml and 533 nM | 190
